Results as given in the supplement of paper PMC10567573.

B1: C10orf62 (parent)
chain: GHSHHSHHGHPSHQSHSLPNRRH
B2: RTP4 (parent)
chain: AFGWFRCSSCQRSWASAQVQILCH

Variants of: B1
Experiment: protein stability index of a GFP-peptide fusion (GPS, HEK-293T) (PSI 1-6); higher = more stable
Conditions: c terminus: native
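Note: lentivirally expressed fusions sorted by FACS into six bins by GFP to DsRed ratio, PSI derived from sequencing read proportions per bin multiplied by bin number.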

In order of falling protein stability index:
1. GHSHHAHHGHPSHQSHSLPNRRH  4.79
2. AHSHHSHHGHPSHQSHSLPNRRH  4.7
3. QHSHHSHHGHPSHQSHSLPNRRH  4.66
4. GHSNHSHHGHPSHQSHSLPNRRH  4.06
5. GHSHPSHHGHPSHQSHSLPNRRH  4.04
6. GHSHHHHHGHPSHQSHSLPNRRH  4.03
7. LHSHHSHHGHPSHQSHSLPNRRH  3.98
8. GHSHHMHHGHPSHQSHSLPNRRH  3.95
9. GHSHFSHHGHPSHQSHSLPNRRH  3.95
10. GMSHHSHHGHPSHQSHSLPNRRH  3.72
11. PHSHHSHHGHPSHQSHSLPNRRH  3.63
12. GHSFHSHHGHPSHQSHSLPNRRH  3.61
13. GTSHHSHHGHPSHQSHSLPNRRH  3.56
14. WHSHHSHHGHPSHQSHSLPNRRH  3.55
15. GHSHDSHHGHPSHQSHSLPNRRH  3.54
16. GHSPHSHHGHPSHQSHSLPNRRH  3.51
17. RHSHHSHHGHPSHQSHSLPNRRH  3.44
18. GHSGHSHHGHPSHQSHSLPNRRH  3.39
19. GHSHHLHHGHPSHQSHSLPNRRH  3.37
20. GKSHHSHHGHPSHQSHSLPNRRH  3.36
21. IHSHHSHHGHPSHQSHSLPNRRH  3.33
22. GHSHHTHHGHPSHQSHSLPNRRH  3.3
23. GHSHHNHHGHPSHQSHSLPNRRH  3.28
24. GNSHHSHHGHPSHQSHSLPNRRH  3.26
25. GFSHHSHHGHPSHQSHSLPNRRH  3.23
26. FHSHHSHHGHPSHQSHSLPNRRH  3.19
27. GHVHHSHHGHPSHQSHSLPNRRH  3.19
28. GLSHHSHHGHPSHQSHSLPNRRH  3.18
29. GQSHHSHHGHPSHQSHSLPNRRH  3.15
30. GSSHHSHHGHPSHQSHSLPNRRH  3.15
31. GHYHHSHHGHPSHQSHSLPNRRH  3.14
32. GHCHHSHHGHPSHQSHSLPNRRH  3.13
33. GHSHYSHHGHPSHQSHSLPNRRH  3.13
34. GRSHHSHHGHPSHQSHSLPNRRH  3.13
35. GHSHCSHHGHPSHQSHSLPNRRH  3.11
36. GHSHHQHHGHPSHQSHSLPNRRH  3.1
37. GHSHTSHHGHPSHQSHSLPNRRH  3.1
38. GHRHHSHHGHPSHQSHSLPNRRH  3.09
39. GHAHHSHHGHPSHQSHSLPNRRH  3.05
40. GASHHSHHGHPSHQSHSLPNRRH  3.05
41. GWSHHSHHGHPSHQSHSLPNRRH  3
42. GHSHHRHHGHPSHQSHSLPNRRH  2.98
43. GDSHHSHHGHPSHQSHSLPNRRH  2.97
44. GHSHHFHHGHPSHQSHSLPNRRH  2.95
45. GHSYHSHHGHPSHQSHSLPNRRH  2.93
46. GHSVHSHHGHPSHQSHSLPNRRH  2.93
47. GHSHASHHGHPSHQSHSLPNRRH  2.92
48. GHNHHSHHGHPSHQSHSLPNRRH  2.89
49. DHSHHSHHGHPSHQSHSLPNRRH  2.81
50. SHSHHSHHGHPSHQSHSLPNRRH  2.81
51. KHSHHSHHGHPSHQSHSLPNRRH  2.79
52. GHSEHSHHGHPSHQSHSLPNRRH  2.76
53. GHKHHSHHGHPSHQSHSLPNRRH  2.75
54. GHSHHVHHGHPSHQSHSLPNRRH  2.71
55. GHSCHSHHGHPSHQSHSLPNRRH  2.69
56. THSHHSHHGHPSHQSHSLPNRRH  2.66
57. GHSHLSHHGHPSHQSHSLPNRRH  2.65
58. GHSHISHHGHPSHQSHSLPNRRH  2.64
59. GHQHHSHHGHPSHQSHSLPNRRH  2.63
60. GHSIHSHHGHPSHQSHSLPNRRH  2.58
61. EHSHHSHHGHPSHQSHSLPNRRH  2.45
62. GHSAHSHHGHPSHQSHSLPNRRH  2.45
63. HHSHHSHHGHPSHQSHSLPNRRH  2.43
64. YHSHHSHHGHPSHQSHSLPNRRH  2.42
65. NHSHHSHHGHPSHQSHSLPNRRH  2.38
66. GHFHHSHHGHPSHQSHSLPNRRH  2.38
67. GHSHSSHHGHPSHQSHSLPNRRH  2.38
68. GHSQHSHHGHPSHQSHSLPNRRH  2.37
69. GESHHSHHGHPSHQSHSLPNRRH  2.36
70. GHSHNSHHGHPSHQSHSLPNRRH  2.35
71. GHWHHSHHGHPSHQSHSLPNRRH  2.33
72. GHSHGSHHGHPSHQSHSLPNRRH  2.33
73. GHSDHSHHGHPSHQSHSLPNRRH  2.31
74. GYSHHSHHGHPSHQSHSLPNRRH  2.31
75. GHSHESHHGHPSHQSHSLPNRRH  2.3
76. GHSHWSHHGHPSHQSHSLPNRRH  2.3
77. GHDHHSHHGHPSHQSHSLPNRRH  2.29
78. GHHHHSHHGHPSHQSHSLPNRRH  2.27
79. GHSHHIHHGHPSHQSHSLPNRRH  2.27
80. GHSHMSHHGHPSHQSHSLPNRRH  2.23
81. GGSHHSHHGHPSHQSHSLPNRRH  2.22
82. GHIHHSHHGHPSHQSHSLPNRRH  2.2
83. MHSHHSHHGHPSHQSHSLPNRRH  2.19
84. GHSKHSHHGHPSHQSHSLPNRRH  2.15
85. GHSHHPHHGHPSHQSHSLPNRRH  2.12
86. GHSHHDHHGHPSHQSHSLPNRRH  2.08
87. GPSHHSHHGHPSHQSHSLPNRRH  1.89
88. GHSHHEHHGHPSHQSHSLPNRRH  1.84
89. GHSHKSHHGHPSHQSHSLPNRRH  1.69
90. GHSHHKHHGHPSHQSHSLPNRRH  1.55
91. GVSHHSHHGHPSHQSHSLPNRRH  1.5
92. GHLHHSHHGHPSHQSHSLPNRRH  1.31

Variants of: B2
Experiment: as above
Conditions: c terminus: a fixed tail appended

In order of rising protein stability index:
1. AFGWFQCSSCQRSWASAQVQILCH  2.12
2. AFNWFRCSSCQRSWASAQVQILCH  2.75
3. AFGWFRCSSCQRSWASAQNQILCH  3
4. AFGWFRCSSCQRSWASAQVQCLCH  3.07
5. AFGWFRCSSCIRSWASAQVQILCH  3.81
